{"source": "paper PMC5796892", "about": "“Leishmania donovani Inhibitor of Serine Peptidases 2 Mediated Inhibition of Lectin Pathway and Upregulation of C5aR Signaling Promote Parasite Survival inside Host” (Frontiers in Immunology, 2018)", "binders": {"B1": {"name": "recombinant Leishmania donovani inhibitor of serine peptidases 1 (natural protein)", "chain": "MSYCKIEAPYPTAEAGEKRIIFALDPKGDEAEQEQYMLQLIPGRVLEMSRNDAANHQTLGGSIEQHTVEGWGAKFFHVKLAKQAASTLMHVHDEDHSEKVRKFVAMPNPPLFPYRSRCPVVVYLPNDAELRYGIWCGGQQMQAVTE"}}, "conditions_in_all_cases": "both partners purified", "key": {"C1 complex (C1qr2s2) [1]": {"biological_target": "T1, C1 complex (C1qr2s2) (human, UniProt P02745 23-245; P02746 28-253; P02747 29-245)", "T1 construct": "Complement C1q, subunit A; Complement C1q, subunit B; Complement C1q, subunit C; Complement C1r, serine protease of the C1 complex; the PDB entry was used only for docking and holds a fragment; Complement C1s, serine protease of the C1 complex; Held on plates coated with human IgM; also called C1 component; source: bought: Merk-Millipore (purified C1 complex); copies: + + + 2 + 2", "assay": "ELISA; C1 complex at 6.25 µg/ml bound to human IgM-coated plate (37°C, 2 h); rLdISP1/rLdISP2 0-50 µM added, 37°C, 2 h; bound ISP detected with anti-ISP1 or anti-ISP2 antibody; Kd taken as the free ligand at half saturation"}, "C1 complex (C1qr2s2) [2]": {"biological_target": "T1, C1 complex (C1qr2s2)", "assay": "ELISA; C1 complex at 50 µg/ml bound to human IgM-coated plate (37°C, 2 h); rLdISP1/rLdISP2 0-50 µM added, 37°C, 2 h; bound ISP detected with anti-ISP1 or anti-ISP2 antibody; Kd taken as the free ligand at half saturation"}, "C1 complex (C1qr2s2) [3]": {"biological_target": "T1, C1 complex (C1qr2s2)", "assay": "ELISA; C1 complex at 25 µg/ml bound to human IgM-coated plate (37°C, 2 h); rLdISP1/rLdISP2 0-50 µM added, 37°C, 2 h; bound ISP detected with anti-ISP1 or anti-ISP2 antibody; Kd taken as the free ligand at half saturation"}, "C1 complex (C1qr2s2) [4]": {"biological_target": "T1, C1 complex (C1qr2s2)", "assay": "ELISA; C1 complex at 12.5 µg/ml bound to human IgM-coated plate (37°C, 2 h); rLdISP1/rLdISP2 0-50 µM added, 37°C, 2 h; bound ISP detected with anti-ISP1 or anti-ISP2 antibody; Kd taken as the free ligand at half saturation"}, "C1 complex (C1qr2s2) [5]": {"biological_target": "T1, C1 complex (C1qr2s2)", "assay": "ELISA; C1 complex at 100 µg/ml bound to human IgM-coated plate (37°C, 2 h); rLdISP1/rLdISP2 0-50 µM added, 37°C, 2 h; bound ISP detected with anti-ISP1 or anti-ISP2 antibody; Kd taken as the free ligand at half saturation"}}, "data": [{"binder": "B1", "values": [{"measurement": "Ka", "setting": "C1 complex (C1qr2s2) [1]", "result": 260000, "unit": "M⁻¹"}, {"measurement": "Kd", "setting": "C1 complex (C1qr2s2) [1]", "result": 3800, "unit": "nM"}, {"measurement": "Ka", "setting": "C1 complex (C1qr2s2) [2]", "result": 450000, "unit": "M⁻¹"}, {"measurement": "Kd", "setting": "C1 complex (C1qr2s2) [2]", "result": 2200, "unit": "nM"}, {"measurement": "Ka", "setting": "C1 complex (C1qr2s2) [3]", "result": 330000, "unit": "M⁻¹"}, {"measurement": "Kd", "setting": "C1 complex (C1qr2s2) [3]", "result": 2800, "unit": "nM"}, {"measurement": "Ka", "setting": "C1 complex (C1qr2s2) [4]", "result": 280000, "unit": "M⁻¹"}, {"measurement": "Kd", "setting": "C1 complex (C1qr2s2) [4]", "result": 3500, "unit": "nM"}, {"measurement": "Ka", "setting": "C1 complex (C1qr2s2) [5]", "result": 625000, "unit": "M⁻¹"}, {"measurement": "Kd", "setting": "C1 complex (C1qr2s2) [5]", "result": 1600, "unit": "nM"}]}]}
